Results published in US20120237948A1 (SHIONOGI, published 2012).

Assays:
Assay in all cases: competitive ELISA against the biotin-labeled SEQ ID NO: 2 peptide
[1] = molecular target: T1, MMP13-undigested human type II collagen (human, UniProt P02458 182-1241, limits assumed)
T1 construct: Triple helix of three chains; also called native type II collagen; non-digested collagen (type II)
Description: (§1) To 10 μg/10 μl of a solution of human type I, type II, or type III collagen (Chondrex), 10 μl of 2 × enzyme reaction buffer (50 mM Tris buffer, pH 7.6, containing 0.3 M NaCl, 10 mM CaCl₂, and 0.005% Brij35) was added for neutralization. To the solution, 0.2 μg of activated human MMP13 (human Pro-MMP13 (Calbiochem), activated by incubation with 1 mM APMA at 37° C. for 2 hours), and the mixture was allowed to react overnight at 37° C. Subsequently, stop solution (EDTA, final concentration 5 mM) was added to prepare the natural type neoepitope solution.
(§2) To a 384-well microtiter plate (Nunc), 35 μl of Tris buffer (50 mM Tris-HCl, pH7.5) containing 0.35 μg of anti-mouse IgG-Fc antibody (Jackson Immuno Research) was added and incubated overnight at 4° C. for adsorption. Each well was washed once with 90 μl of washing solution (physiological saline containing 0.01% Tween20), and then 0.1 ml of Block Ace (Dainippon pharmaceuticals) was added. The plate was allowed to stand for 2 hours at room temperature for blocking (an anti-mouse IgG antibody-solid-phased plate). After each well was washed once with 90 μl of the washing solution, 10 μl of buffer A containing 6.4-250 nM of the natural type neoepitope solution was mixed with 10 μl of buffer A containing 1 ng/ml of the biotin-labeled neoepitope peptide (SEQ ID NO: 2) and 200 ng/ml of Streptavidin-HRP, and 10 μl of buffer A containing 15 ng/ml of the anti-neoepitope antibody (20A10). Then the mixture was allowed to react at 4° C. for 16 hours.
(§3) Subsequently, each well was washed three times with 90 μl of the washing solution, and 25 μl of TMB-Substrate Chromogen (DAKO) was added and incubated for 30 minutes at room temperature for color development, followed by the addition of 25 μl of 0.05 M sulfuric acid to terminate the reaction. Then, the absorbance at 450 nm was measured.

[2] = molecular target: T2, MMP13-undigested human type III collagen (human, UniProt P02461 154-1221)
T2 construct: also called non-digested collagen (type III)
T2 sequence (looked up): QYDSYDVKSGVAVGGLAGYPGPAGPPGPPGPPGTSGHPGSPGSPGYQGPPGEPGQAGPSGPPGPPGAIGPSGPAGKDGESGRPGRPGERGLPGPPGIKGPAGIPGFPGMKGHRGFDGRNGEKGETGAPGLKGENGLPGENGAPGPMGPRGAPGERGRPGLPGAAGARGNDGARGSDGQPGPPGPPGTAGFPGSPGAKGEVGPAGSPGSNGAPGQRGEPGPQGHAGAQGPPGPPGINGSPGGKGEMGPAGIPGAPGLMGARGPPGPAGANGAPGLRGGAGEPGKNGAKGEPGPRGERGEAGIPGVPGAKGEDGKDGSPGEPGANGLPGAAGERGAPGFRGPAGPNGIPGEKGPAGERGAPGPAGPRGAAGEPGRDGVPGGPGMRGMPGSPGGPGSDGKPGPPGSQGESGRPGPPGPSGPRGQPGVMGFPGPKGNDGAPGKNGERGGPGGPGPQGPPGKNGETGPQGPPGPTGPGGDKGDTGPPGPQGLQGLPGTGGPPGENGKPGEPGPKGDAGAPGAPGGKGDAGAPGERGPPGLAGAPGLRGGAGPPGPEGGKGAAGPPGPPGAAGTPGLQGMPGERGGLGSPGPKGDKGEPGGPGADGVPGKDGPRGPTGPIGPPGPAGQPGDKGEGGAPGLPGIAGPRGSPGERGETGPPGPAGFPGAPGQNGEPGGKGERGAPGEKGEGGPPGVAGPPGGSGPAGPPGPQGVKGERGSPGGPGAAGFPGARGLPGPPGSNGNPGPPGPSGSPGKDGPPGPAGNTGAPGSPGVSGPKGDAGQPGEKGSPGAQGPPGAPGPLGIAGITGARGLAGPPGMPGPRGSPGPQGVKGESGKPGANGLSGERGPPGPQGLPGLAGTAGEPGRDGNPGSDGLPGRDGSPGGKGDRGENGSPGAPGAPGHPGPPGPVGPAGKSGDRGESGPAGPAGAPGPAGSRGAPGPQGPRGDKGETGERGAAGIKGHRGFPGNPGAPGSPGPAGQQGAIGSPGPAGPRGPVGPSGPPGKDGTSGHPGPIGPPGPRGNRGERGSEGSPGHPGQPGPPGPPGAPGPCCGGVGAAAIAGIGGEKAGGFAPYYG
Description: as §1, §2, §3

[3] = molecular target: T3, MMP13-undigested human type I collagen (human, UniProt P02452 162-1218; P08123 80-1119)
T3 construct: The chain composition comes from general knowledge; also called non-digested collagen (type I)
T3 sequence (P02452 162-1218, chain 1 of 2): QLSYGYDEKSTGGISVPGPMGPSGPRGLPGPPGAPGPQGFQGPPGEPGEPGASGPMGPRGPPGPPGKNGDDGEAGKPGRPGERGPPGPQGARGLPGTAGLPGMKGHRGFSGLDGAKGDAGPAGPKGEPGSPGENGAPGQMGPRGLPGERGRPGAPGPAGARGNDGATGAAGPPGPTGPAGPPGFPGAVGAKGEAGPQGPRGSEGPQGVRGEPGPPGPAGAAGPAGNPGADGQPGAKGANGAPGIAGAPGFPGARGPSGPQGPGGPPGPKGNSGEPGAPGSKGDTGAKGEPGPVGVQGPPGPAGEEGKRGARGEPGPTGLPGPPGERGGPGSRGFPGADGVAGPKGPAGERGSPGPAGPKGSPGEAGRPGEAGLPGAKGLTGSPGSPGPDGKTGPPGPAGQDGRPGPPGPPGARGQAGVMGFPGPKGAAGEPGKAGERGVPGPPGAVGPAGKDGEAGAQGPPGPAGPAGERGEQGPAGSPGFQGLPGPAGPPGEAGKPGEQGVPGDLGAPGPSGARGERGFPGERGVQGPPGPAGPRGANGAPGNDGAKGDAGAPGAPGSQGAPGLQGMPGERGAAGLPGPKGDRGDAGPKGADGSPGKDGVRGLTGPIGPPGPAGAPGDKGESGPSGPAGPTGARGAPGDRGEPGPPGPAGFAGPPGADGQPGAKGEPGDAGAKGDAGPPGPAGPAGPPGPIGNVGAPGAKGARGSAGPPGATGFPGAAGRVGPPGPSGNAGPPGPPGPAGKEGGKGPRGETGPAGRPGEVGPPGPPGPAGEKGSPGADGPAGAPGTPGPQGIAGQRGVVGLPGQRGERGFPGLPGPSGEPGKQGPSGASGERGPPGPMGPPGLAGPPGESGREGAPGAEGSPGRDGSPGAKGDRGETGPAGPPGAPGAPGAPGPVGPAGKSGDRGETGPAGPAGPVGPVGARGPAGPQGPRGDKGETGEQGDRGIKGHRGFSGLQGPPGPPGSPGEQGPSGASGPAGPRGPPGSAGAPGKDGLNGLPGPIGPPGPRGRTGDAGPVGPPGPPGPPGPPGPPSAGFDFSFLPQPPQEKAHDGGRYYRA
T3 sequence (P08123 80-1119, chain 2 of 2): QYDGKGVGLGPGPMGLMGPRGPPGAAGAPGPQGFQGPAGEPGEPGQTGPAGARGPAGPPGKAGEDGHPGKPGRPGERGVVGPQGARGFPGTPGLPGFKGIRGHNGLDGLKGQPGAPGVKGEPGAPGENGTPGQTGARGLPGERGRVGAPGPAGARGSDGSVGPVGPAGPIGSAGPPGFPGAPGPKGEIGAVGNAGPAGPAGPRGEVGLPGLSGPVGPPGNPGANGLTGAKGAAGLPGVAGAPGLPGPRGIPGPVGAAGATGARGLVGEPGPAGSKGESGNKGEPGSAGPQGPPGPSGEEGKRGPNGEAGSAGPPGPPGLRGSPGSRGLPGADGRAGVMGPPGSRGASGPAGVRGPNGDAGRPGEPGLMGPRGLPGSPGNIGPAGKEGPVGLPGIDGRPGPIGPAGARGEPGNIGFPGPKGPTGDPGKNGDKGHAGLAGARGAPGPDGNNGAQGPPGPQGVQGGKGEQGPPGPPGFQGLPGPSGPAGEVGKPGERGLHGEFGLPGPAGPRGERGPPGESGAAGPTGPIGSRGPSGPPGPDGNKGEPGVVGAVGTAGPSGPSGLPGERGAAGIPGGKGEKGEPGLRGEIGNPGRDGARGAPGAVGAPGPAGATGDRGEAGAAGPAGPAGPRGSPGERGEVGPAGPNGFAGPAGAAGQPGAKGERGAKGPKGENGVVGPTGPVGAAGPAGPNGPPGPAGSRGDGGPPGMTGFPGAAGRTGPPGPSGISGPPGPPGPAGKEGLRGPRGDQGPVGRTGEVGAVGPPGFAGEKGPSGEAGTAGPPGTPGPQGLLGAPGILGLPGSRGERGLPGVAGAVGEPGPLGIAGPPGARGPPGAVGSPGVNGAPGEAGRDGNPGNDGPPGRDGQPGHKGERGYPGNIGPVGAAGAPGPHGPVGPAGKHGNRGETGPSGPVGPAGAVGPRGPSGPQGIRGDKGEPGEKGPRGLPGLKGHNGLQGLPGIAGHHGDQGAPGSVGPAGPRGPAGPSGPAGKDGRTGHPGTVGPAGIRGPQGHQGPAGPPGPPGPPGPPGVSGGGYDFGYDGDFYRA
Description: as §1, §2, §3

Measured: binding result

T1 sequence (P02458 182-1241 limits assumed): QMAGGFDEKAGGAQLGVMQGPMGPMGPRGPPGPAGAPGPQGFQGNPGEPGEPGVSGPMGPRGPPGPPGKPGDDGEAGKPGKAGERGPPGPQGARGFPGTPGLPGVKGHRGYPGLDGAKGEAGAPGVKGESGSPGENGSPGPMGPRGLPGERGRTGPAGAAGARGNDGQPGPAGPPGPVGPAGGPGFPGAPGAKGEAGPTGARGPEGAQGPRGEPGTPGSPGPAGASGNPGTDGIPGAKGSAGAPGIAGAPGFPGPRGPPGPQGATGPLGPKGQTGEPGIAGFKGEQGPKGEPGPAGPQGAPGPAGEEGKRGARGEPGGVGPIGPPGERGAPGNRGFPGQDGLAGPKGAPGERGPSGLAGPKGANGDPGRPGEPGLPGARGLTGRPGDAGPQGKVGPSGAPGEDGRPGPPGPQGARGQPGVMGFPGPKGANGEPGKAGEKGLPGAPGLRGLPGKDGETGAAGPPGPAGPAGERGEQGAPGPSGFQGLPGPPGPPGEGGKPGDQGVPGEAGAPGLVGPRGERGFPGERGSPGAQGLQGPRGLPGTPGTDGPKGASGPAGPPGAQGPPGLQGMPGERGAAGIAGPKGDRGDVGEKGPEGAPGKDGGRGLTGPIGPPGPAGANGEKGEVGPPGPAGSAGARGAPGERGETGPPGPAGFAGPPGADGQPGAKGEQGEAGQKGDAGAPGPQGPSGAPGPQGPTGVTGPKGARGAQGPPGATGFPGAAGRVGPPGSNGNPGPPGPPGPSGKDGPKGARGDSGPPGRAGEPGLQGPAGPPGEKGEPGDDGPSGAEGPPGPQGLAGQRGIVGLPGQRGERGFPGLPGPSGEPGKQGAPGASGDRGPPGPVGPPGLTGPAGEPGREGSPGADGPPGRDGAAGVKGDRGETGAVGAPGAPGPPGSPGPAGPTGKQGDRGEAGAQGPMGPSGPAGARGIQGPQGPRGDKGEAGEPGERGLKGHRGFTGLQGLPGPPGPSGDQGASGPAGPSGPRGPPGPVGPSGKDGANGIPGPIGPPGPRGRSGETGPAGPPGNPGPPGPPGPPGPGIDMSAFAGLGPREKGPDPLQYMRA

B1: anti-neoepitope antibody 20A10 (antibody, IgG1, V domains shown)
VH: QIQLVQSGPELKEPGETVRISCKASGYTFTKYGINWVKQAPGKGLEWMAWINTYSGMTTYADDFKGRFAFSLETSANTAYLQINHLKNDDTATYFCARSLGYDYGGFAYWGQGTLVTVSA
VL: DVLLTQTPLSLPVSLGDQAFISCRSGQTLVHDNENTYFHWYLQKPGQSPKLLIYKISNRFSGVPDRFSGSGSGTDFTLKISRVEPEDLGIYFCSQNTHVPFTFGSGTKLEIKR
notes: also called HRP-labeled 20A10
no binding: all assays above
